The values that follow come from the DeepSol protein solubility set.

A short description of this data set: soluble on expression in E. coli; label from the status in PepcDB or PDB records.
On to “MSLSRQCVLAGISRAALYARRKPKRIVQDDELLLRLIDEEYTRHPFYGSRKMVVHLGRCGHSVNRKWAQRLMRSLGLAGMAPGPNTSRAHPQHKVYPYLLRGVAISRPNQVWSTDITYIRLARGFAYLVAVIDWYSRRVLSWRISNSMETVFCVDCLEEALRIHGKPEVFNTDQGSQFTSEAFTSVLKREGVIISMDGRGRALDNIFVERLWRSVKHEDVYLKGYSAMGELLIGLTQYFTFYNGERPHQALKNLTPDVVYQRAQGGGAMIVDKYGAAQSLPMALRSTGTAFDEVRLALLCHVTHADAGLSWRCSEGTERKSRDEAWREGHHHHHH”, for which the “soluble on expression in E. coli” value is “not soluble”.
Under “MGSDKIHHHHHHMRIGCVLARKGKMMMNGELAGFTIPRLGMGTMALAIEGRPDRDTAIRTIHAGLDAGVRYLDTAWSYYLPSEPGTGTAKDLGYGEKLVRDALASWNGPRDEVLVATKTGYRRTMEIPAFVAPVSDSPESDTQGRDSEGCSRRPGGERQHLQAAGSQYGWMADSRPETMIRDAKESALHLGVDTLDLLYSHGPDPEVAYEDQVGALKQLLNEGVIRYAGISRVDNAQIDIAREILGDKLIAVQNQFSPSHPDPEHTMEHCAELGLAFVCWSPLGGFLDAFDQRAYDPFRTVAGNHGCSYQRVVLAWELSRYERLFTIPSARNPQEINDSFAATELTLTQDELAMLNASVDARRG” stands “not soluble”; under “VGEKITKMKEESHKTKQTKTEDPITKETYQARQRTLLQRDYLLVHIEDLLPKQVFAVSVINDYLVCIQAQGLEPMSDVGLLGKHQFYLRTYHYFV”, “not soluble”; under “AHHHHHHGSETEEIEAPKKKVPLAMVTIRPAKLFDIPYIMRIEQMSFKEAYPRGLFLTFLEANPDTFLVAEYNGKIVGYVMGYLRPDMEGHIMSIAVHPDYRGNGIGKALMIAVIKKLFEKGARWIGLEVRVSNYRAINLYKKLGFKIVKRIISYYSDGEDAYYMILRPEDFERVILS”, “not soluble”.
As for “MAHHHHHHSGTVTDDYLANNVDYASGFKGPLPMPPSKHIAIVACMDARLDVYRMLGIKEGEAHVIRNAGCVVTDDVIRSLAISQRLLGTREIILLHHTDCGMLTFTDDDFKRAIQDETGIRPTWSPESYPDAVEDVRQSLRRIEVNPFVTKHTSLRGFVFDVATGKLNEVTP”, the entry is “soluble”; as for “MGSDKIHHHHHHEPVSSISDANYWKSPDLFKAFNIGLHGLLRSQSSYNIFVLGEPRSDIYGDQPFGGEATQGVERFSYNTINAEFTGISNFANFYTTLNQINLMIRRTNETDLLGEAEKNYYLGQAYGLRAYIYFHLLRSWGDVIITTEPTLGSELDISHLDKAASPASEVMDLIKKDIDASEKAFGGDYSYKQGKCYWSKPATLMLKGEVYLWSGRQMGGGTGDYTVAKTALQDLQQNGNLKLQEKFTDVFSFNNKENSEMIFALHSGKEDDFMMWRDYNWRNNMVPQREYMAGYCDETGTPFLEIPGYNLQGLMRYQVKKDHYLKSFREGDTRLKGTLKAVYKKHEDGTLEYIAPIQYKFQGTTLEGSNERSWYDDYPIYRYADALLLLAEAKALLGEDPSTEINAVRERAYGSEYFNAHKNEVAYPNDKGSFYNDNPFEAGDENVMEAILKERLREFFFEGKRWYDLRRFGKDYVLKYTTAQESRLLWPINEGALTNNPALKQTPGY”, “not soluble”; as for “MTSLVRGQNTPLTSPQLTVTVSGVTPGSVDLMVFQVTTTGNVRSDSDFVFFNQPASPEGAVRLTGPSTVDVDVTKVPHSIDRLRLAVSMDDSAPGSLAAIPGLGVTLGSVSAPALGLTTERAAVLAEIYRRGEQWKIRNVSAGWDTGLKALVTEHGVVVDDAPSHPPAPTYPSTPPAQPPAPVIAPPAPTPTPAPQPRVQRSKITLTKASPTVSLAKGGDTGTMRVNLNWTRGRRGLFGGNGAIDLDLACLYQLNDGSKGVVQALGNAFGDLHYPPYIALDGDDRSGTNAGGENLHINLAHLADFKRILIFAYIYDGTPNWSAADGIVTLYPPHGPEVEVRLDSPDNRARSCAIALLKNERNELTVTREVRYINGTQSDISKAYRWGLKWTAGRK”, “not soluble”.
